Experiments:
[1] = biological target: FcRn, FCGRT & B2M dimer receptor (Sino Biological Inc.); assay: SPR, FcRn on CM5 chip, 12.5 nM analyte, RU 2 s before end of pH 6.0 injection
[2] = biological target: FcRn, FCGRT & B2M dimer receptor (Sino Biological Inc.); assay: SPR, FcRn on CM5 chip, 12.5 nM analyte, RU 10 s after start of dissociation at pH 7.4
[3] = biological target: FcRn, FCGRT & B2M dimer receptor (Sino Biological Inc.); assay: SPR, FcRn on CM5 chip, 25 nM analyte, RU 10 s after start of dissociation at pH 7.4
[4] = biological target: FcRn, FCGRT & B2M dimer receptor (Sino Biological Inc.); assay: SPR (BIACORE 3000), FcRn on CM5 chip, pH 6.0, 1:1 Langmuir with drifting baseline
[5] = biological target: FcRn, FCGRT & B2M dimer receptor (Sino Biological Inc.); assay: SPR, 100 nM analyte, (RU at pH 7.4 / RU at pH 6.0) x 100
[6] = biological target: FcRn, FCGRT & B2M dimer receptor (Sino Biological Inc.); assay: SPR, FcRn on CM5 chip, 25 nM analyte, RU 2 s before end of pH 6.0 injection
[7] = biological target: FcRn, FCGRT & B2M dimer receptor (Sino Biological Inc.); assay: SPR, 25 nM analyte, (RU at pH 7.4 / RU at pH 6.0) x 100
[8] = biological target: FcRn, FCGRT & B2M dimer receptor (Sino Biological Inc.); assay: SPR, FcRn on CM5 chip, 100 nM analyte, RU 10 s after start of dissociation at pH 7.4
[9] = biological target: FcRn, FCGRT & B2M dimer receptor (Sino Biological Inc.); assay: SPR, FcRn on CM5 chip, 50 nM analyte, RU 2 s before end of pH 6.0 injection
[10] = biological target: FcRn, FCGRT & B2M dimer receptor (Sino Biological Inc.); assay: SPR, 50 nM analyte, (RU at pH 7.4 / RU at pH 6.0) x 100
[11] = biological target: FcRn, FCGRT & B2M dimer receptor (Sino Biological Inc.); assay: SPR, FcRn on CM5 chip, 50 nM analyte, RU 10 s after start of dissociation at pH 7.4
[12] = biological target: FcRn, FCGRT & B2M dimer receptor (Sino Biological Inc.); assay: SPR, 12.5 nM analyte, (RU at pH 7.4 / RU at pH 6.0) x 100
[13] = biological target: FcRn, FCGRT & B2M dimer receptor (Sino Biological Inc.); assay: SPR, mean over 100-12.5 nM analyte, (RU at pH 7.4 / RU at pH 6.0) x 100
[14] = biological target: FcRn, FCGRT & B2M dimer receptor (Sino Biological Inc.); assay: SPR, FcRn on CM5 chip, 100 nM analyte, RU 2 s before end of pH 6.0 injection

Human growth hormone-immunoglobulin Fc fragment conjugate, sequence (P01241 27-217): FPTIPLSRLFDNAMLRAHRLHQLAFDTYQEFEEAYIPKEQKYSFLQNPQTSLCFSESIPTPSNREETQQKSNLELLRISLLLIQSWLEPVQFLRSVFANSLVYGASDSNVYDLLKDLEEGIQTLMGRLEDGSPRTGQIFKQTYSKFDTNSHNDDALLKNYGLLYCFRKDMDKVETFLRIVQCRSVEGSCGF

Binding amount (RU) at pH 6.0 [1]	Binding amount (RU) at pH 7.4 [2]	Binding amount (RU) at pH 7.4 [3]	Kd [4]	koff [4]	kon [4]	Binding ratio (%) [5]	Binding amount (RU) at pH 6.0 [6]	Binding ratio (%) [7]	Binding amount (RU) at pH 7.4 [8]	Binding amount (RU) at pH 6.0 [9]	Binding ratio (%) [10]	Binding amount (RU) at pH 7.4 [11]	Binding ratio (%) [12]	Average binding ratio (%) [13]	Binding amount (RU) at pH 6.0 [14]	Substance
82.9 RU	8.1 RU	8.3 RU	0.0268 µM	0.0036 s⁻¹	120000 M⁻¹ s⁻¹	4%	112 RU	7.4%	8.2 RU	153 RU	5.1%	7.7 RU	9.8%	6.6%	206 RU	Human growth hormone-immunoglobulin Fc fragment conjugate (from UniProt P01241 27-217)
91.3 RU	6.4 RU	6.7 RU	0.03 µM	0.0093 s⁻¹	300000 M⁻¹ s⁻¹	3.2%	120 RU	5.6%	6.4 RU	157 RU	4.3%	6.7 RU	7%	5%	197 RU	Interferon-immunoglobulin Fc fragment conjugate (from UniProt P01563 24-188)
